Laboratory results taken from the DeepSol protein solubility set.

test: soluble on expression in E. coli; label from the status in PepcDB or PDB records

Soluble on expression in E. coli, soluble:
MRDNLVEQIISDVMNKQTDISPEAKTAANFAGCGITEFVGTALGHTIGLVIANVDNQLHEVMNIDKKYRSIGILGARTGAGPQIFAADEAIKATNSEIISIELARDTEGGGGHGCLIIFGASDVSDVRRAVEVALSEIERTMGDVYGSSAGHLEFQYTARASYALNKALGAPIGKSFGMTCASPAAIGLVIADAAAKSAVIDPVGYASPSQGTSFSNEVIFTFSGDSGAVRQAVIAAREVGLQLLSTLDPVEIKSTTTPYI
MRERTEARRRRIEEVLRRRQPDLTVLLENVHKPHNLSAILRTCDAVGVLEAHAVNPTGGVPTFNETSGGSHKWVYLRVHPDLHEAFRFLKERGFTVYATALREDARDFREVDYTKPTAVLFGAEKWGVSEEALALADGAIKIPMLGMVQSLNVSVAAAVILFEAQRQRLKAGLYDRPRLDPELYQKVLADWLRK
MRGSGQFRVIGPGHPIRALVGDEAELPCRISPGKNATGMEVGWYRSPFSRVVHLYRNGKDQDAEQAPEYRGRTELLKESIGEGKVALRIQNVRFSDEGGYTCFFRDAEYQEEAAVELKVEDPFYWINPGRSRSHHHHHH
MRGSHHHHHHGMASMVVNNPNNWHWVDKNCIGWAKEYFKQKLVGVEAGSVKDKKYAKIKSVSSIEGDCEVNQRKGKVISLFDLKITVLIEGHVDSKDGSALPFEGSINVPEVAFDSEASSYQFDISIFKETSELSEAKPLIRSELLPKLRQIFQQFGKDLLATHGNDIQV
MRGSHHHHHHGMSCSKSVIKEEMLIDLHLEGTFNGHYFEIKGKGKGQPNEGTNTVTLEVTKGGPLPFGWHILCPQFQYGNKAFVHHPDNIHDYLKLSFPEGYTWERSMHFEDGGLCCITNDISLTGNCFYYDIKFTGLNFPPNGPVVQKKTTGWEPSTERLYPRDGVLIGDIHHALTVEGGGHYACDIKTVYRAKKAALKMPGYHYVDTKLVIWNNDKEFMKVEEHEIAVARHHPFYEPKKDK
MRGSHHHHHHGSAPIKVGDAIPAVEVFEGEPGNKVNLAELFKGKKGVLFGVPGAFTPGCSKTHLPGFVEQAEALKAKGVQVVASLSVNDAFVTGEWGRAHKAEGKVRLLADPTGAFGKETDLLLDDSLVSIFGNRRLKRFSMVVQDGIVKALNVEPDGTGLTCSLAPNIISQL
MRGSHHHHHHGSEEASSTGRNFNVEKINGEWHTIILASDKREKIEDNGNFRLFLEQIHVLEKSLVLKFHGRVRLLNNWDCSELSMVADKTEKAGEYSVTYDGFNTFTIPKTDYDNFLMAHLINEKDGETFQLMGLYGREPDLSSDIKERFAQLCEEHGILRENIIDLSNANRCLQARE
MRGSHHHHHHGSMDAQSAAKCLTAVRRHSPLVHSITNNVVTNFTANGLLALGASPVMAYAKEEVADMAKIAGALVLNIGTLSKESVEAMIIAGKSANEHGVPVILDPVGAGATPFRTESARDIIREVRLAAIRGNAAEIAHTVGVTDWLIKGVDAGEGGGDIIRLAQQAAQKLNTVIAITGEVDVIADTSHVYTLHNGHKLLTKVTGAGSLLTSVVGAFCAVEENPLFAAIAAISSYGVAAQLAAQQTADKGPGSFQIELLNKLSTVTEQDVQEWATIERVTVS
MRILILGMGGTIASVKGERGYESALSVSKILKLAGISSEAKIEARDLMNVDSTLIQPSDWERLAKEIEKEVWEYDGIVITHGTDTMAYSASMLSFMLRNPPIPIVLTGSMLPITEKNSDAPFNLRTALEFVKLGIRGIYIAFNGKVMLGVRASKIRSMGFDAFESINYPNVAEIKDDKLRILHIPDFYGDEFFSDIKYEPKVLVIKLIPGLSGDIVREALRLGYKGIILEGYGVGGIPYRGTDLFEVVSSISKRIPVVLTTQAIYDGVDLQRYKVGRIALEAGVIPAGDMTKEATITKLMWILGHTKNIEEVKQLMGKNITGELTRVS
MRITTKVGDKGSTRLFGGEEVWKDSPIIEANGTLDELTSFIGEAKHYVDEEMKGILEEIQNDIYKIMGEIGSKGKIEGISEERIKWLEGLISRYEEMVNLKSFVLPGGTLESAKLDVCRTIARRAERKVATVLREFGIGKEALVYLNRLSDLLFLLARVIEIEKNKLKEVRS

Soluble on expression in E. coli, not soluble:
MRDNKELTESKLHLDEFSAYLMSIDKSDSTIKTYIEHIQAFAKWFEETNCIDFDPAVITEIDIRDMRSYLQGTRHLKETTINLRLASLKCYFSFLESEKYIKHNPARNIRKIKLQSPNIAKSLDEQTYRALRRHVYRGGNKAHIAMFEIFTRCGVRNFELINIRLTDFDISDRKGTLKIVGKLNKVRYIPLHKDVRDAINNWMEIRKNIKTEYDNLFISERKTPYTRSGIWKIFKKYCEQIGITDVTIHSFRHYFCRTLLKNGVDISVVAKLAGHSSGFVTAQVYTIPRQEELEAAIETLV
MRERAYFIGAHAYSAPIIEPALYLVATPIGNLADITLRALQVLAGVDILACEDTRVTRVLLERYGIQKKTFLYHEYNAQKAGPKLLTALEENKAIALVSDAGTPLISDPGFRLVEEARKAGHKIVPIPGASALLAALVATGLPTDSFFFAGFLSARKAQRQKRLEQLKTIPATLVFYESPHRLVETLQDMVALFSADRPAAICRELTKKFETVDVSNLGNLSESYGKQAHIRGEIVVLVGQKLSSLNVMSDHEIDEMLLELARTYSAAKAASLASKKTGLKKQELFQRLNFLKDA
MRFFYDTEFIEDGETIDLVSIGIVCEDGREYYAVSTDADHSRANKWVRDNVLDKMPNPSSTLWKSNATIRQEVYEFLTSTPGNTELWAWVGAYDHVVLAQLWGDMRGLPKELPRYTHELKQYWEMAGRPRLPKLPEGNHDALVDARHNLQKFKICAESLPLNKRNVVNR
MRFPPLLFFQDSEAVKRIANSVRGTKDDDAEIKDHSMRFIRNAISGDQQKEILNVDMLRYIAWVLVALNENIVTARTVIRERDAVEDALKNQQPEDIENFADDLKINMKYNRDLERFEIGVFDFVKYASRVTGSQYRLSNQSVIKGIVYCQKDVAIKILRESFVSNMFKVIDSIDQTTASPVLSDQTDSINELREFYKKSVYAKLTIGRGNTKAFPPCMKEIIRNLHEGINVPHMGRLAIASFLHKVGYTEDEIVEYFRNAPDFDESITRYQIKHLSGEISGVEYSPPKCETMRSNHLCFMDDDKLCHQDWMKHPLTYYEVKSRRLGMAGDPNSLEHHHHHH
MRFTISAAKPEDCKDIERMIMELAVYENMPDQVKISHKELERDGFGPNPFYHCLVAEVPEEHKSKDGNTTVGYVIFFYTYSTWKGRTVYMEDLYVMPEFRGNGIGKALLGAVAKEAKDQLCSRLQFSVLDWNKPSLDFYMAKGAEDLTAKEGWHFLRFHGMALDNLAQEAP
MRGFAQVWHGLREKKRAECTPLNAFLTYVTLPWNSILNDLLSERQKRPILTFEFDAPAHNHD
MRHDTRLSRVLHILIHMEKHEGAATSENIAAMLQTNPVVVRRTMAGLREHGYVSSEKGHGGGWVLAQPLTEITLLDIYRALGAPELFSIGLAGDNPNCVIEQAVNAALFDAMNEAENILLSRFGSITLSTLAEESIDRWSKLSNCPSAMEQL
MRIARRAVEEWVEHGRRLDVEAGGKLGRPGAAFVTLERRSGDGWELRGCIGVVRPVLPLVEAVVTAAVDAASSDPRFEPLSREELDRVRVEVTVLGSMEPLPKKPHERPALVEVGLHGLYVEKPPYAGLLLPQVAVDEGWDPILFLTWACIKAGLPGTCWLREDVEIYRFRAAVWRETEPRGPVVRRDLAREAAAKGVNARVSTHISSCKSLEHHHHHHTHISSCKSLEHHHHHHTHISSCKSLEHHHHHHTHISSCKSLEHHHHHHTHISSCKSLEHHHHHHTHISSCKSLEHHHHHHTHISSCKSLEHHHHHH
MRIDFGAGDEISFIKKGHAGVIKLARSSALNALNGRMVSALKKALSVWETDDDVSCVLIEGEGRAFCAGGDVVEIYHMEEKISSYQYFNDEYRLNAYIKHFRKPYISFLNGIWMGGGVGISIYGSHRIVTENTLFAMPESAIGFFPDVGASFFLPSLPDHFGIYLALTGARIKWGDCLNLGLATHAVPEIELECIRKAIIEQGNPQLALEEHAITKDYETSHEIRSVINACFGTHTLEECMELLYKKSNEGLFFARECYDILQSRSPTSLKVIWKQMKQNSSQTLEECMKIENRIAHHMINSHDFREGVRAMLIDKDKTPKWQPDKLSNITDEMIDAYFQPVEKELLF
MRIGQYQLRNRLIAAPMAGITDRPFRTLCYEMGAGLTVSEMMSSNPQVWESDKSRLRMVHIDEPGIRTVQIAGSDPKEMADAARINVESGAQIIDINMGCPAKKVNRKLAGSALLQYPDVVKSILTEVVNAVDVPVTLKIRTGWAPEHRNCEEIAQLAEDCGIQALTIHGRTRACLFNGEAEYDSIRAVKQKVSIPVIANGDITDPLKARAVLDYTGADALMIGRAAQGRPWIFREIQHYLDTGELLPPLPLAEVKRLLCAHVRELHDFYGPAKGYRIARKHVSWYLQEHAPNDQFRRTFNAIEDASEQLEALEAYFENFA
MRILIASQPIAGHVLPLREIARELARRGHELRWYTGRKFRPQVEAAGAVWEGFVHARDYDDANFDAAFPGRSARRGLAQLLFDLRHVFVGQMEGQFYDLRDLERRWRPDVVLADQTVGAALLREELGGPPVALLGVLPLGIASRDTAPFGLGLAPLGGAAGQLRNRALQVLTERVVFRGISAQLADLCTWLGLPARSFAPPVAPSLMLQPSVPRLEYLRRDLPPQVRFIGPLVLPAGEFTPPAWWNDILTAERPVVLVTQGTLATRPEQLLRPALAALADEDVLVVAAGVAPERLGPLPANARAAAFVPFTALLPHVAVSLTNGGYGGTVQALSHGVPCVVAGRSEDKAEVAARVAYSGAGLNLGTATPSPARIRAAVRRVLREPAFREQAGELGHELRQHDAPREAADWLETLGGKKLEHHHHHH
MRILLSNDDGVHAPGIQTLAKALREFADVQVVAPDRNRSGASNSLTLESSLRTFTFDNGDIAVQMGTPTDCVYLGVNALMRPRPDIVVSGINAGPNLGDDVIYSGTVAAAMEGRHLGFPALAVSLNGYQHYDTAAAVTCALLRGLSREPLRTGRILNVNVPDLPLAQVKGIRVTRCGSRHPADKVIPQEDPRGNTLYWIGPPGDKYDAGPDTDFAAVDEGYVSVTPLHVDLTAHSAHDVVSDWLDSVGVGTQW
MRILTLGLDGSGEFAFQSHAHTDHFANGRLIFATRPTIFLSHLRNSRYYIPVDFGKKFYIGDFKAKLYPSGHILGSSGIKIWLDEGTLYYTGDVKVKKLRTVERAKLPKADFLIIESTFGLPRFTFPDPRESEKVIIGIVEDLIDRGKVPTFMANPYGKAQEIIKILNVHGYSVSVDREIAKVSKFYMKFGVRLKFEKEGEVKVSSSKGISVSGFGRIKLSNHADFWELLEIVERVNPEKVFTVYGHAEAFAKILNGLGYEAKSIRRNQKLEVWLEHHHHHH
MRILVSCANGSGTSLMMMRSVEKAMKELGVPITKIHHCAISEGKSSASQYDVVFTPVNFLQMFQQAEKRGVTVIGIKNVMSAKEIQEKYMASDRYQKSE
MRITASLRTFCHLSTPHSDSTTSRLWIDEVTAVARQRDRDSFMRIYDHFAPRLLRYLTGLNVPEGQAEELVQEVLLKLWHKAESFDPSKASLGTWLFRIARNLYIDSVRKDRGWVQVQNSLEQLERLEAPVDRTLDYSQRQEQQLNSAIQNLPTDQAKVLRMSYFEALSHREISERLDMPLGTVKSCLRLAFQKLRSRIEES
